Experimental findings from article PMC9018508 are described below.

The assay deals with CD40L (UniProt P29965). The experiment in a line: SPR.
Sequence of UniProt P29965 (P29965 116-261): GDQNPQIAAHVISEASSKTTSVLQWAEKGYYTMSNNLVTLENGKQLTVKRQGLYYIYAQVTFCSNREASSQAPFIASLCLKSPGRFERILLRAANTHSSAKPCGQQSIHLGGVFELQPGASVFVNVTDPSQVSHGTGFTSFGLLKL

Substance 5c8Ile^L98 → 7-HCAA Fab returned a Kd of 41.6 nM.

A word on the Kd: it is the constant that tells how readily two partners part at equilibrium.
